Test results: patent US11572572B2, “A138T mutation-containing plant EPSPS mutant, and encoding gene and application thereof” (GEVOTO LLC, priority 2017, dated 2023)

How the values were obtained:
[1] = test system: double-knockout Escherichia coli strain (EDCE); assay: Growth of double-knockout E. coli (EDCE) transformed with Oryza sativa EPSPS genes in glyphosate media (Example 5); format: cell-based; conditions: Example 5, FIG. 1
Source text: An Escherichia coli strain transformed with the Oryza sativa EPSPS mutant I-encoding gene according to Example 1 was used as Experimental Group 1 (having only the A155(138)T mutation).
An Escherichia coli strain transformed with the Oryza sativa EPSPS mutant II-encoding gene according to Example 2 was used as Experimental Group 3 (having the G111(96)A mutation and A155(138)T mutation).
An Escherichia coli strain transformed with a wild-type Oryza sativa EPSPS-encoding gene (SEQ ID NO: 14, encoding wild-type Oryza sativa EPSPS set forth in SEQ ID NO: 5) was used as a control group.
The glyphosate resistance of the Oryza sativa EPSPS mutant I-encoding gene and the encoded Oryza sativa EPSPS mutant I in Escherichia coli, and the glyphosate resistance of the Oryza sativa EPSPS mutant II-encoding gene and the encoded Oryza sativa EPSPS mutant II in Escherichia coli were verified by detecting the growth statuses of the transformed Escherichia coli in media containing different concentrations of glyphosate (0 mM, 1 mM, 2 mM, 20 mM) (media obtained by using M9 as a basal medium and then adding certain concentrations of antibiotics Spec (Spectinomycin), Gen (Gentamycin), and Amp (Ampicillin) and different concentrations of glyphosate).
Here, the Escherichia coli strain used was an double-knockout Escherichia coli strain (Escherichia coli strain DH5a from which an EPSPS gene and a C-P Lyase gene were knocked out, named EDCE, which may be prepared by a method with reference to Chinese Patent Application No. 2016103256926).
The detection was carried out by a method well known in the art, which was briefly described below. Gene encoding Oryza sativa EPSPS mutants was synthesized by a chemical synthesis method, wherein enzymatic digestion sites (Pacl and Sbfl) were introduced at both ends of the gene. The gene were enzymatically cleaved and then ligated in the presence of ligase to an expression vector (e.g., pADV5 vector having a structure as shown in FIG. 4) subjected to the same enzymatic digestion treatment, and then were transformed into the double-knockout Escherichia coli strain. After verification, positive clones were picked out and inoculated and grown in media containing glyphosate. The growth statuses were observed.

[2] = test system: transgenic rice seedlings; assay: Glyphosate resistance of EPSPS mutants in transgenic rice sprayed with glyphosate (Example 8); format: in vivo, rice (Nipponbare)
Source text: The glyphosate resistance of the EPSPS mutants of the above examples in transgenic rice was detected by the following method.
Plasmids of monoclonal resistant strain comprising pADV5-EPSPS of Examples 1-4 (containing the EPSPS mutant genes) were extracted in accordance with a conventional method. They were subjected to double enzymatic digestion with Pacl and BstEII to recover small fragments, and then the small fragments were ligated, using T4 DNA ligase, to a pGVP1 vector subjected to double enzymatic digestion in the same manner, to obtain a pGVP1-EPSPS vector having a structure as shown in FIG. 8.
The pGVP1-EPSPS vector was transformed into EHA105 (Agrobacterium tumefaciens) competent cells, and single clones were picked out for colony PCR detection to obtain positive strains. Then, the positive strains were inoculated into and propagated in 1 mL of a YEP medium containing 50 μg·mL^−1 kanamycin and 50 μg·mL^−1 rifampicin, and stored at −80° C. or used in subsequent experiments.
400 ul of a strain containing the target gene vector stored at −80° C. was added to a culture dish with a solid medium containing YEP+50 μg/mL rifampicin+50 μg/mL kanamycin and cultured in the dark at 28° C. for 24 hours, and then the bacterium was added to an infection medium and adjusted to OD=0.2 as an infection solution.
Disinfection and Pre-culture: seeds of mature rice (Nipponbare) were manually dehulled. Full seeds with no bacterial plaques were selected and disinfected in accordance with the following steps: the seeds were placed in a 50 ml sterile centrifuge tube and disinfected with the added 70% ethanol in water for 30 seconds, ethanol solution was poured out, and the seeds were washed once with sterile water; 10 to 20 ml of 2.6% sodium hypochlorite solution was added to soak and disinfect the seeds for 20 minutes. The sodium hypochlorite solution was poured out, and the seeds were soaked and washed with sterile water for 6 or 7 times, for 3 minutes each time.
Induction and Subculture: the seeds were placed on and blotted with sterile filter paper, and the mature embryos were placed in an induction medium, with 12 embryos per dish. After the operation was completed, the culture dishes were sealed with parafilm and underwent culturing in the dark at 30° C. for 21 to 28 days. Callus tissue was transferred to a fresh medium and continued to be cultured for about 7 to 14 days. Spherical callus tissue with a dimension of 1 to 2 mm was taken as an infection receptor.
The callus tissue was placed into a centrifuge tube or culture cup, infected in the prepared Agrobacterium suspension added thereto for 10 minutes, and shaken several times during the period; the bacterial solution was poured out, the callus tissue was taken out and placed on sterile filter paper for absorbing the bacterial solution from its surface (for about 30 minutes); the callus tissue was placed on sterile filter paper in culture dishes and cultured in the dark at 25° C. for 2 or 3 days.
Recovery Culture: the co-cultured callus tissue was inoculated on a recovery medium and cultured in the dark at 30° C. for 5 to 7 days.
Primary Screening: the callus was transferred to screening medium 1 (51) and cultured in the dark at 30° C. for 14 days.
Secondary Screening: the callus was then transferred to screening medium 2 (S2) and cultured in the dark at 30° C. for 14 days.
Primary Differentiation: the screened resistant callus tissue was transferred to a differentiation medium and cultured for about 21 days at 30° C. under exposure to light for 19 hours.
Secondary Differentiation: new young shoots were selected and moved to a fresh differentiation medium and continued to be cultured for about 21 days.
When the new seedlings grew to about 2 cm, they were moved to a rooting medium and cultured for 3 to 4 weeks at 30° C. under exposure to light (for 16/8 h). […]

[3] = 1X dose glyphosate (1,060 g/ha), day 10 after spraying
[4] = 2X dose glyphosate (2,120 g/ha) on survivors of 1X, after another 10 days
[5] = 5X dose glyphosate (5,300 g/ha) on survivors of 2X, after additional 10 days
[6] = 20X dose glyphosate (21,200 g/ha) on survivors of 5X, after further 10 days

B1: R0: wild-type Oryza sativa EPSPS (SEQ ID NO: 5), encoding gene SEQ ID NO: 14; control group of Example 5 (protein, listed as Oryza sativa)
chain: MASNAAAAAAKAEEIVLQPIREISGAVQLPGSKSLSNRILLLSALSEGTTVVDNLLNSEDVHYMLEALKALGLSVEADKVAKRAVVVGCGGKFPVEKDAKEEVQLFLGNAGTAMRPLTAAVTAAGGNATYVLDGVPRMRERPIGDLVVGLKQLGADVDCFLGTECPPVRVKGIGGLPGGKVKLSGSISSQYLSALLMAAPLALGDVEIEIIDKLISIPYVEMTLRLMERFGVKAEHSDSWDRFYIKGGQKYKSPGNAYVEGDASSASYFLAGAAITGGTVTVQGCGTTSLQGDVKFAEVLEMMGAKVTWTDTSVTVTGPPREPYGKKHLKAVDVNMNKMPDVAMTLAVVALFADGPTAIRDVASWRVKETERMVAIRTELTKLGASVEEGPDYCIITPPEKLNITAIDTYDDHRMAMAFSLAACADVPVTIRDPGCTRKTFPNYFDVLSTFVRN
31: plant number with resistance − (non-glyphosate resistant, withered or dead) [2, 4] | plant number with resistance − (non-glyphosate resistant, withered or dead) [2, 5] | plant number with resistance − (non-glyphosate resistant, withered or dead) [2, 6]
could grow: growth status of transformed Escherichia coli ([1]; medium containing 0 mM glyphosate)
all had no resistance: glyphosate resistance of transformed rice seedlings (in words) ([2]; after spraying with 1× glyphosate)
1: plant number with resistance + (low glyphosate resistant) [2, 3]
0: plant number with resistance ++ (moderately glyphosate resistant) [2, 3] | plant number with resistance +++ (highly glyphosate resistant) [2, 3] | plant number with resistance + (low glyphosate resistant) [2, 4] | plant number with resistance ++ (moderately glyphosate resistant) [2, 4] | plant number with resistance +++ (highly glyphosate resistant) [2, 4] | plant number with resistance + (low glyphosate resistant) [2, 5] | plant number with resistance ++ (moderately glyphosate resistant) [2, 5] | plant number with resistance +++ (highly glyphosate resistant) [2, 5] | plant number with resistance + (low glyphosate resistant) [2, 6] | plant number with resistance ++ (moderately glyphosate resistant) [2, 6] | plant number with resistance +++ (highly glyphosate resistant) [2, 6]
could not grow: growth status of transformed Escherichia coli ([1]; medium containing 1 mM glyphosate) | growth status of transformed Escherichia coli ([1]; medium containing 2 mM glyphosate) | growth status of transformed Escherichia coli ([1]; medium containing 20 mM glyphosate)
0.0%: % ++&+++ (percentage of moderately and highly glyphosate resistant plants in total plants observed) [2, 3] | % ++&+++ (percentage of moderately and highly glyphosate resistant plants in total plants observed) [2, 4] | % ++&+++ (percentage of moderately and highly glyphosate resistant plants in total plants observed) [2, 5] | % ++&+++ (percentage of moderately and highly glyphosate resistant plants in total plants observed) [2, 6]
